Measurements reported in the nanobody polyreactivity screen of Harvey et al. (2022).

Experiment: yeast display, Sf9 membrane polyspecificity reagent, FACS + sequencing; frameworks hold sequencing errors
Summary of the method: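 Sorting gates, low and high (top ~1%), were placed on anti-HA fluorescence to track expression and on streptavidin fluorescence to track reagent binding. A clone's polyreactivity label is taken from the gate it came out of. The reagent was 10% biotinylated, detergent-solubilized Sf9 membrane, applied for 1 hour at 4 °C to galactose-induced yeast display cells.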

Sequence | polyreactivity (PSR sort gate)
QVQLVESGGGLVQAGGSLRLSCAASGSIFTIYAMGWYRQAPGKERELVAAISFSGGSTYYADSVKGRFTISRDNAKNSVYLQMNSLKPEDTAVYYCAADGGFTYDYWGQGTQVTVSS | low polyreactivity
QVQLVESGGGLVQAGGSLRLSCAASGSIFTIYAMGWYRQAPGKERELVAAITRSGGSTSYADSVKGRFTISRDNAKNTVYLQMNSLKPEDTAVYYCNKDLNFAKYISSILYDYWGQGTQVTVSS | low polyreactivity
QVQLVESGGGLVQAGGSLRLSCAASGSIFTIYAMGWYRQAPGKERELVATITGGGGSTYYADSVKGRFTISRDNAKNTVYLQMNSLKPEDTAVYDCAADSPGWTYTSRSYDYWGQGTQVTVSS | low polyreactivity
QVQLVESGGGLVQAGGSLRLSCAASGSIFTKYAMGWYRQAPGKERELVAAISWSGVSTYYADSVKGRFTISRDNAKHTVYLQMNSLKPEDTAVYYCNTRRYRSYGTTRYGYWGQGTQLTVSS | high polyreactivity
QVQLVESGGGLVQAGGSLRLSCAASGSIFTKYAMGWYRQAPGKERELVAGISRTTGSTYYADSVKGRFTISRDNAKNTVYLQMNSLKPEDTAVYYCAALSYRRGISRDGGYDYWGQGTQVTVSS | high polyreactivity
QVQLVESGGGLVQAGGSLRLSCAASGSIFTLNAMGWYRQATGKEREFVAAITLRSGSTYYADSVKGRFTISRDNAKNTVYLQMNSLKPEDTAVYYCAARRTRYIYYYWGQGTQVTVSS | high polyreactivity
QVQLVESGGGLVQAGGSLRLSCAASGSIFTLYAMGWYIQAPGKEREFVAGMSFSTGRTYYADSVKGRFTISRDNAKNTVYLQMHSLTPEDTAGYYCAAYVSHYWYGLYRDGYWGQGTQATVSS | low polyreactivity
QVQLVESGGGLVQAGGSLRLSCAASGSIFTLYDMGWYRQAPGKERELVAAITSGGSTDYADSVKGRFTISRDNAKNTVYFQMNSLKPEDTAVYYCNAEAYPYWYRGASREYDYWGQGTQVTVSS | low polyreactivity
QVQLVESGGGLVQAGGSLRLSCAASGSIFTLYDMGWYRQAPGKERELVAAITSGGSTDYADTVKGRFTISRDNAKNTVYLQMNSLKPEDTAVYYCNAESFTYWYRGASREYDYWGQGTQVTVSS | low polyreactivity
QVQLVESGGGLVQAGGSLRLSCAASGSIFTNNAMGWYRQAPRKERELVAAISWSGGSTYYADSVKGRFTISRDNAKITVYLQMISLKPEDTAVSYCAARYLYYGGRPGYDSWGQGTQVTVSS | high polyreactivity
QVQLVESGGGLVQAGGSLRLSCAASGSIFTPNAMGWYRQAPGKERELVAAISRSGGSTYYADSVKGRFTISRDNAKNTVYLQMNSLKPEDTAVYYCAVDYRYYYRYTSGEYWGQGTQGTVSS | low polyreactivity
QVQLVESGGGLVQAGGSLRLSCAASGSIFTPNAMGWYRQAPGKERELVAAISSSSDRTYYADSVKGRFTISRDNAKNTVYLQMNSLKPEDTAVYYCAAYAQKRYYWGQGTQVTVSS | high polyreactivity
QVQLVESGGGLVQAGGSLRLSCAASGSIFTPNVMGWYRQAPGKERELVAAISQSGGSTFYADSVKGRFTISRDNAKNTVYLQMNSLKPEDTAVYYCATEYYGPVYDLDYDYWGQGTQVNVSS | low polyreactivity
QVQLVESGGGLVQAGGSLRLSCAASGSIFTPYAMGWYRQAPGKERELVAAISSDGSTYYADSVKGRFTISRDNAKNTVYLQMNSLKTEDTAVYYCAAEYSWYYYYLFVGEYDYWGQGTQVTVSS | low polyreactivity
QVQLVESGGGLVQAGGSLRLSCAASGSIFTPYAMGWYRQAPGKERELVAAISYSGGSTYYADSVKGRFTISRDNAKNTVYLQMNSLKPEDTAVYYCATDGYVYTPFDDDEDYWGQGTQVTVSS | low polyreactivity
QVQLVESGGGLVQAGGSLRLSCAASGSIFTPYAMGWYRQAPGKERELVATISWSGGRTYYADSVKGRFTISRDNAKNTVYLQMNSLKPEDTAVYYCNADVLKYKFDYWGQGTQVTVSS | high polyreactivity
QVQLVESGGGLVQAGGSLRLSCAASGSIFTPYAMGWYRQAPGKEWELVAAISWRGCNTYYADSVKGRFTISRDNAKNTVYLQMNSLKPEDTAVYYCAAEQNYVYETGSYDYWGQGTQVTVSS | low polyreactivity
QVQLVESGGGLVQAGGSLRLSCAASGSIFTQNAMGWYRQAPGKERELVAGISDGDSTNYADSVKGRFTISRDNAKNTVYLQMNSLKPEDTAVYYCNAQGTTETSGGGFFRGMDYWGQGTQVTVSS | low polyreactivity
QVQLVESGGGLVQAGGSLRLSCAASGSIFTQYAMGWSRQAPGKERELVAVITTGSSTYYADSVKRRFTISRDNAKNTVYLQMNSLKPEDTSVYYCAVRTATRSPRRYGYWGQGTQVTVSS | high polyreactivity
QVQLVESGGGLVQAGGSLRLSCAASGSIFTQYAMGWYRQAPGKERELVAAISWTGGRTNYADSVKGRFTISRDTAKNTFYLQMNSLKPEDTSVYYCAATYLLRYCQGWKRMDYWGQGTQVTVSS | high polyreactivity

Sequence | polyreactivity (PSR sort gate)
QVQLVESGGGLVQAGGSLRLSCAASGSIFTRNAMGWSRQAPGKEREFVAAISSSGVSTYYADSVKGRFTISRDNAKNTVYLQMNSLKPEDTAVYYCAARWGTKSGRYDYWGQGTQVTVSS | high polyreactivity
QVQLVESGGGLVQAGGSLRLSCAASGSIFTRNAMGWYRPAPGKERELVAAISRRGVSTYYADSVKGRFTTSRDNAKNTVYLQMNSLKPEDTAVYYCNKLSSYVVARRTTEYDYWGQGTQVTVSS | high polyreactivity
QVQLVESGGGLVQAGGSLRLSCAASGSIFTRNVMGWSRQAPGKERELVAAITGSGGRTYYADSVKGRFTISRDNAKNTVYLQMNSLKPEDTAVYYCAKSRPGTYDYWGQGTQVTVSS | high polyreactivity
QVQLVESGGGLVQAGGSLRLSCAASGSIFTRYAMGWYRQAPGKDRELDADIRWGGGDTYYADSVKGRFTNSRDNAKNTVYLQMNSLTPEDTAVYYCNADHTFIKYYPDWGDYGRDYDYWGQGTQVTVSS | low polyreactivity
QVQLVESGGGLVQAGGSLRLSCAASGSIFTRYAMGWYRQAPGKERELVAAITASGGRTYYADSVKGRFTISRDNAKNTVYLQMNSLKPEDTAVYYCNTYWRYTSQLPYDYWGQGTQVTVSS | high polyreactivity
QVQLVESGGGLVQAGGSLRLSCAASGSIFTRYAMGWYRQAPGKERELVAAITKSGSRTYYADSVKGRFTISRDNAKNTVYLQMNSLKPEDTAVYYCAVKFYLPRTRGGYWGQGTQVTVSS | high polyreactivity
QVQLVESGGGLVQAGGSLRLSCAASGSIFTRYAMGWYRQAPGKERELVATISKRSGSTYYADSVKGRFTISRDNAKNTVYLQMISLKPEDTAVYYCAARNSGRVKYGYWGQGSQVTVSS | high polyreactivity
QVQLVESGGGLVQAGGSLRLSCAASGSIFTRYAMGWYRQAPGKERELVAVISVSGGRTYYADSVKGRFTISRDNAKNTVYLQMNSLKPEDTAVYYCATDYYRPALDYWGQGTQVTVSS | high polyreactivity
QVQLVESGGGLVQAGGSLRLSCAASGSIFTSNAMGWYRQAPGKEWELVAAITSDGAITYADSVKRRFTISRDNAKNTVYLQMNTLKPEDTAVYYCAARIRQNPGGDNSWGQGTQVTVSS | low polyreactivity
QVQLVESGGGLVQAGGSLRLSCAASGSIFTVNTMGWYRQAPGKERELVATISKRGGRTYYADSVKGRFTISRDNAKNTVYLQMNSLKPEDTAVYYCNRVASGYPVGTSIDYGYWGQGTQVTVSS | high polyreactivity
QVQLVESGGGLVQAGGSLRLSCAASGSIFTWNGMGWYRQAPGKERELVAAISNGASTNYAESVKGRFTISRDNAKNTVYLQMNSLKPEDTAVYYCAAKSTGRYDYWGQGTQVTVSS | low polyreactivity
QVQLVESGGGLVQAGGSLRLSCAASGSIFTWYAMGWYRQAPGKERELVARINVSAGITYYADSVKGRFTISRDNAKNTVYLQMNSLKPEDTAVYYCAATGWRRPKHNYWGQGTQVTVSS | low polyreactivity
QVQLVESGGGLVQAGGSLRLSCAASGSIFTWYAMGWYRQAPGTERELVAAITRGGSTYADSVKGRFTISRDNAKNTVYLQMNSLKPEDTAVYYCNAVYGVYDFNYWGQGTQVTVSS | low polyreactivity
QVQLVESGGGLVQAGGSLRLSCAASGSIFTYKAMGWYRQAPGKERELVAAIRQRGGSTYYADSVKGRFTISRDNAKNTVYLQKNSLKPEDTAVYYCAARGSYVRSYYYYWGQGTQVTVSS | high polyreactivity
QVQLVESGGGLVQAGGSLRLSCAASGSIFTYNAMGWYRQAPGKDRELVAAIRLSGGSTYYADSVKGRFTISRDNAKNTVYLQMTSLNPEDTAVYYCAAESAAASGVYSVEYDYWGQGTQVTVSS | low polyreactivity
QVQLVESGGGLVQAGGSLRLSCAASGSIFTYNAMGWYRQAPGKERELVAAINTSGSTNYADSVKGRFTISRDNAKNTVYLQMNSLKPEDTAVYYCAAGIVVTGYAYWGQGTQVTVSA | low polyreactivity
QVQLVESGGGLVQAGGSLRLSCAASGSIFTYNVMGWYRQAPGKERELVDAISWDGDSTYYSDSVKGRFTISRDNEKNTVYLQMKSLKQDDTAVYYCAADVHEKFQYDYWGQGNQVTVSS | high polyreactivity
QVQLVESGGGLVQAGGSLRLSCAASGSIFTYYAMGWYRQATRKERELLADIRWSVGSTYYADSVKGRFTISRDNAKNTVYLQMNSLKPEDTAVYYCNAVVYIYYLTSYKYGNDSWGQGTQVTVSS | low polyreactivity
QVQLVESGGGLVQAGGSLRLSCAASGSIFTYYTMAWYRQAPGTERELVAAINGRGHSTYYADSVKGRFTISRDNAKNTVYLQMKSLKSEDTAVYYCKALGSLDGRYGYWGQGTQVTVSS | high polyreactivity
QVQLVESGGGLVQAGGSLRLSCAASGSIFVAYDMGWYRQAPGKERELVAAINFDGTSTYYADSVKGRFTISRDNAKNTVYLQMNSLKPEETAVYYCNNRVSPTYKGQYEYWGQGTQVTVSS | low polyreactivity
